# Source: patent US20100285022A1 (TRELLIS RSV, published 2010)
# T1: RSV G protein of strain A (Ga protein) (respiratory syncytial virus, strain A …, UniProt P03423 66-298)
# T1 construct: also called RSV-Ga; RSV-GA2 protein
# T1 sequence (looked up): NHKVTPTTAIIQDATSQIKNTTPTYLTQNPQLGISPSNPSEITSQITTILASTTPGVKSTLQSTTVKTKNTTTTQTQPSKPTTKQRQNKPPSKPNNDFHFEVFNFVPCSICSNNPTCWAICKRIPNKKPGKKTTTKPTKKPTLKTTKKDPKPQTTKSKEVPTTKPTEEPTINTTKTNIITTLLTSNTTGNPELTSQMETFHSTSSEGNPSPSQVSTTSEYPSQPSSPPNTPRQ
# T2: Ga derived 12-mer peptide SKPNNDFHFEVF (SEQ ID NO:8) (respiratory syncytial virus, strain A …)
# T2 construct: Peptide on an array of overlapping 12-mers
# T2 peptide: SKPNNDFHFEVF
# B1: human monoclonal antibody 3G12 (antibody, V domains shown)
# VH: QLQLQESGPGLVKPSETLSLTCTVSGGSISSSNYYWGWIRQPPGKGLEWIASIHDSGSIYYNPSLRSRVTISVDTSKNQFSLKLSSVTAADTAVYYCARHLVWFGELRNNWFDPWGQGTLVTVAS
# VL: EIVMTQSPATLSVSPGERATLSCRASQSVNSNLAWYQHKPGQAPRLLIYGASTRATGIPARFSGSGSGTDFTLTISSLQSEDFAVYYCQQYNNWPLFGPGTKVDLK
# B2: murine monoclonal antibody 131-2G (antibody, V domains shown)
# VH: EVQLQQSGPELVKPGTSVKISCKASGYSFTGFTMNWVKQSHGKNLEWFGLINPFNGNTGYNQKFKGKATLTVDKSSSTAFMELLSLTSEDSAVYYCARSGKSYDYEAWFTYWGQGTLVTVSA
# VL: DIVMTQTTLSLPVSLGNQASISCRSSQTIVHTNGNTYLEWYLQKPGQSPKLLIYKVSNRFSGVPDRFSGSGSGTDFILNISRVEAEDLGVYYCFQGSHVPFTFGSGTKLEIKR
# notes: also called mAb 1312G
# B3: human monoclonal antibody 3D3 (antibody, V domains shown)
# VH: EEQLVESGGGLVQPGRSLRLSCVGSGLRFEEHAMHWVRQAPGRGLEWVSGISWNSGSVGYADSVKGRFTTSRDNAKDILFLEMNTLRSEDTALYFCAIMVATTKNDFHYYKDVWGKGTTVTVSS
# VL: QIVLTQSPATLSLSPGERATLSCKASQSVSNHLAWYQQKPGQAPRLLIYETSNRATGIPPRFSGSGSGTDFTLTISSLEPEDFAVYYCQQRNNWYTFGQGTKLEIK
# B4: human monoclonal antibody 1D4 (antibody, V domains shown)
# VH: QVQLLQSGAELKKPGASVKVSCQASIDTFSTYYIHWVRQAPGQGLEWLGVINPSGGSTTYAQKFQDRITLTTDTSTRTVYMDLSSLRSEDTAVYYCARVHKGRAEQWQLLHGHFDLWGRGSLVTVSS
# VL: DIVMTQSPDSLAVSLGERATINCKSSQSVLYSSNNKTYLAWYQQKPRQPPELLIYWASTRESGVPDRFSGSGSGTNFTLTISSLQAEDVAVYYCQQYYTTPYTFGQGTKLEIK
# B5: human monoclonal antibody 1G8 (antibody, V domains shown)
# VH: QLQLQESGPGLVKPSETLSLTCTVSGDSITSGQYYWAWIRQAPGKGLEWIGSIHYSGSTYQNPSLKSRLTISVDTSRDQISMKLSSVTVAESAVYYCAKQQLSLSPVENWFDPWGQGTLVTVSS
# VL: EIVVTQSPVTLSVSPGESAALSCRASRSVGSRLAWYQQKPGQPPRLLIFAASTRATGIPARFSGSGSGTDFTLIISGLQSEDYAVYYCQQYKEWPLFTFGPGTTVDSK
# B6: human monoclonal antibody 5D8 (antibody, V domains shown)
# VH: QAQLVESGGGVVQPGRSLRLSCAASGFTFSYSGMHWVRQAPGRGLEWLAVISYDGNKMYYADSVKGRFTISRDNSKMTLYLQMNSLRREDTAVYYCAKDGLDYGGDLVYYGMDVWGNGTTVTVSS
# VL: SYELTQPPSVSVSPGQTGRITCTGSEASGDALASRYAYWYQHKSGQAPVVLIYKDTERPSGISERFSGSSSGTTVTLIISGVLAEDEADYYCKTSVRNGTSWVFGTGTMLTVL
# Experiments:
# [1] = target: T1, RSV G protein of strain A (Ga protein); experiment: Biacore, antibody on chip, recombinant Ga in flow
# [2] = target: T1, RSV G protein of strain A (Ga protein); experiment: Biacore, ratio of on-rate to off-rate; Biacore, not the ELISA midpoint (4 nM)
# [3] = target: T2, Ga derived 12-mer peptide SKPNNDFHFEVF …; experiment: peptide array of overlapping 12-mer Ga peptides probed with 131-2G at 1 ug/ml, chemiluminescence
# [4] = target: T3, G protein on live RSV virus coated on the plate (strain not stated) (respiratory syncytial virus); experiment: ELISA on live RSV virus coated on the plate, anti-human Fc-HRP detection
# T3 construct: whole, on cells; also called live virus; virus particles
# [5] = target: T4, RSV G protein of strain B (Gb protein) (respiratory syncytial virus, strain B); experiment: Biacore, antibody on chip, recombinant Gb in flow
# T4 construct: also called RSV-Gb; G protein from strain B
Binder,Kd [1],EC50 (read off the curve) [4],other results
B1,0.579 nM,,
B2,,,Kd [2]: 7 nM; binding result [3]: binds
B3,0.0011 nM,~0.1 µg/mL,
B4,0.23 nM,,Kd [5]: 0.052 nM
B5,0.024 nM,~0.3 µg/mL,
B6,4.39 nM,,
